Columns and labels:
[1] = target: T1, SARS-CoV-2-S1 (RBD)-His protein (Trenzyme) (SARS-CoV-2, UniProt P0DTC2 319-541); assay: direct ELISA on coated RBD-His
[2] = target: recombinant SARS-CoV Spike protein (RBD, His tag) (SARS-CoV, UniProt P59594 306-527); assay: iQue flow cytometry, antigen-coated beads
[3] = target: T2, MERS-CoV Spike protein fragment (RBD, aa 367-606, His tag) (MERS-CoV, UniProt K9N5Q8 367-606); assay: iQue flow cytometry, antigen-coated beads
T2 sequence: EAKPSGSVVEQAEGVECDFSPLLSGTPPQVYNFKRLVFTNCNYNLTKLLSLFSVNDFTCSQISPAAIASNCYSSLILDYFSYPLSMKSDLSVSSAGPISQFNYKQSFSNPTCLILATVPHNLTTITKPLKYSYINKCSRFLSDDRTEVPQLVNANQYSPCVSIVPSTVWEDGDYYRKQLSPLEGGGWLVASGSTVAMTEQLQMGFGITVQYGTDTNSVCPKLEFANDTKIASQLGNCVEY

[4] = target: T1, SARS-CoV-2-S1 (RBD)-His protein …; assay: iQue flow cytometry, antigen-coated beads
[5] = target: T3, BSA (Sigma-Aldrich) (bovine, UniProt P02769 25-607); assay: direct ELISA on coated BSA
T3 construct: also called bovine serum albumin; BSA control

[6] = target: T1, SARS-CoV-2-S1 (RBD)-His protein …; assay: competition ELISA, RBD binding to coated ACE2

B1: NI-607.532_D8 (antibody, V domains shown)
VH: EVQLVESGGGVVQPGRSLRLSCAASGFTFSSYGMHWVRQAPGKGLEWVAVISYDGSNKYYADSVKGRFTISRDNSKNTLYLQMNSLRAEDTAVYYCAKQGGGQYCSGGSCYSGYFDYWGQGTLVTVSS
VL: not shown
B1 showed an EC50 [1] of 0.0051 nM, an EC50 [2] of 32 nM and an EC50 [3] of 1000 nM. For the same binder, the EC50 [4] was 14.4 nM.

B2: NI-607.820_B6 (antibody, V domains shown)
VH: EVQLQESGPGLVKPSETLSLTCTVSGGSVSSGSYYWSWIRQPPGKGLEWIGYIYYSGSTNYNPSLKSRVTISVDTSKNQFSLKVSSVTAADTAVYYCARDSIVVVPAARPLYYGMDVWGQGTTVTVSS
VL: not shown
For B2, the EC50 [1] was 0.029 nM, the binding result [5] was “no binding (tested: 400 nM)” and the EC50 [2] was 60.2 nM. For the same binder, the EC50 [3] was 1000 nM and the EC50 [4] was 2.4 nM.

B3: NI-607.531_E3 (antibody, V domains shown)
VH: EVQLVESGGGVVQPGRSLRLSCAASGFTFSSYGMHWVRQAPGKGLEWVAVISYDGSNKYYADSVKGRFTISRDNSKNTLYLQMNSLRAEDTAVYYCAKQISGYNYPYYFDYWGQGTLVTVSS
VL: not shown
In the case of B3, the EC50 [1] is reported as 0.02 nM, the binding result [5] is reported as “no binding (tested: 400 nM)” and the EC50 [2] is reported as 2.6 nM. For the same binder, the EC50 [3] was 1000 nM and the EC50 [4] was 1.4 nM.

B4: NI-607.532_C8 (antibody, V domains shown)
VH: QVQLVESGGGLVKPGRSLRLSCTASGFTFGDYAMSWFRQAPGKGLEWVGFIRSKAYGGTTEYAASVKGRFSISRDDSKSIAYLQMNSLKTEDTAVYYCTRGWIVVVIEDAFDIWGQGTMVTVSS
VL: not shown
B4 was tested, and the binding result [5] was “no binding (tested: 400 nM)”, the EC50 [2] was 400 nM and the EC50 [3] was 400 nM.

B5: NI-607.426_E2 (antibody, V domains shown)
VH: EVQLVESGGGLVQPGGSLRLSCAASGFTFSSYDMHWVRQATGKGLEWVSAIGTAGDTYYPGSVKGRFTISRENAKNSLYLQMNSLRAEDTAVYYCARASFLDYSWLYFDYWGQGTLVTVSS
VL: not shown
B5 was tested, and the EC50 [1] was 0.03 nM, the binding result [5] was “no binding (tested: 400 nM)” and the EC50 [3] was 600 nM. For the same binder, the EC50 [4] was 2.06 nM and the IC50 [6] was 10.7 nM.

B6: NI-607.791_B10 (antibody, V domains shown)
VH: QVQLQQWGAGLLKPSETLSRTCAVYGGSFSDYYWSWIRQPPGKGLEWIGEVNHRGVTNYNPSLKSRVTISIDTSKSQFSLELRSVTDADTALYFCARSPFWTIAARPFDYWGRGTLVTVSS
VL: EIVMTQSPGTLSLSPGERATLSCRASQSVISNYLAWYQQKPGQAPRFLIYAASTRARGIPDRFSGSGSGTDFTLTISRLEAEDFAVYYCQQYGNSPLTFGGGTKLEIK
For B6, the EC50 [1] was 0.062 nM, the binding result [5] was “no binding (tested: 400 nM)” and the EC50 [2] was 400 nM. For the same binder, the EC50 [3] was 400 nM and the EC50 [4] was 13.7 nM.

B7: NI-607.532_D4 (antibody, V domains shown)
VH: QVQLVQSGAEVKRPGASVKVSCKASGYHFTDYYIHWVRQAPGQGLEWMGWINPNSGGTNYAQKFQGRVTMTRDTSISTAYMELSRLRSDDTAVYYCARVYYYDSSSFADYWGQGTLVTVSS
VL: not shown
notes: also called NI-607.532_D4C5
With B7 the EC50 [1] was 0.0055 nM, the EC50 [2] was 1000 nM and the EC50 [3] was 1000 nM. For the same binder, the EC50 [4] was 1 nM.

B8: NI-607.275_C5 (antibody, V domains shown)
VH: QVQLVESGGGLVQPGGSLRLSCAASGFTVSSNYMSWVRQAPGKGLEWVSVIYSGGSTYYADSVKGRFTISRDNSKNTLYLQMNSLRAEDTAVYYCARDFGDYYFDYWGQGTLVTVSS
VL: not shown
With B8 the EC50 [1] was 0.02 nM, the binding result [5] was “no binding (tested: 400 nM)” and the EC50 [3] was 800 nM. It also gave an EC50 [4] of 1.5 nM and an IC50 [6] of 36.8 nM.

B9: NI-607.820_B7 (antibody, V domains shown)
VH: EVQLVESGGGLVQPGRSLRLSCAASGFTFDDFDMHWVRQAPGKGLEWVSGVTWNSGIIGYADSVKGRFTISRDNAKNSLYLQMNSLRAEDTALYYCAKEFYPRYGSGIRSHYFGMDVWGQGTTVTVSS
VL: QSVLTQSPSASGTPGQRVTISCSGSSSNVGSNAVNWYQQLPGTAPKLLIYSNNRRPSGVPNRFSGSKSGTSASLAISGLQSDDEADYYCAAWDDSLDGPTFGGGTKLTVL
In the case of B9, the EC50 [1] is reported as 0.082 nM, the binding result [5] is reported as “no binding (tested: 400 nM)” and the EC50 [2] is reported as 800 nM. The EC50 [3] was 800 nM and the EC50 [4] was 9 nM.

— patent US20230242624A1 (NEURIMMUNE, published 2023)
